Data from US9279769B2, “Proteins that efficiently generate singlet oxygen” (The Regents of the University of California, priority 2010, dated 2016).
Where “and” joins values, the source holds several entries; their conditions need not be identical. Equal values may be shown once.

System: IFP1.4
Assay: bleaching of fused IFP1.4 in E. coli colonies by blue light
Type: cell-based
Description: In phototropin, the excited state energy of FMN is consumed to form a covalent bond with a cysteine. To divert this energy into ^1O2 generation, we carried out saturation mutagenesis of the relevant cysteine (Cys426) of the LOV2 domain of Arabidopsis thaliana phototropin 2 (AtPhot2). To screen for optimal ^1O2 production, these site-specific mutants were fused to an infrared fluorescent protein, IFP1.4, which is readily bleached by ^1O2 [21]. Colonies of E. coli expressing the fusion proteins were imaged in the IFP channel (ex 684/em 708 nm) before and after blue light (488 nm) illumination (FIG. 1A). […] The small side chain of the glycine residue may provide space around the cofactor that would allow O2 close apposition to FMN for efficient energy transfer.
[…] was synthesized by overlap extension PCR [48]. Genetic libraries were constructed by saturation and random mutagenesis and DNA shuffling. Mutants were fused to IFP1.4 by overlap extension PCR and cloned into a modified pBAD vector containing the heme oxygenase-1 gene from cyanobacteria. Libraries were expressed in E. coli strain TOP10 and screened by imaging the agar plates with colonies in the IFP channel before and after blue light illumination. Protein purification and spectroscopic characterization experiments were done as described.

B1: C426G (protein)
chain: MERPRAPPSPLNDAESLSERRSLEIFNPSSGKETHGSTSSSSKPPLDGNNKGSSSKWMEFQDSAKITERTAEWGLSAVKPDSGDDGISFKLSSEVERSKNMSRRSSEESTSSESGAFPRVSQELKTALSTLQQTFVVSDATQPHCPIVYASSGFFTMTGYSSKEIVGRNCRFLQGPDTDKNEVAKIRDCVKNGKSYCGRLLNYKKDGTPFWNLLTVTPIKDDQGNTIKFIGMQVEVSKYTEGVNDKALRPNGLSKSLIRYDARQKEKALDSITEVVQTIRHRKSQVQESVSNDTMVKPDSSTTPTPGRQTRQSDEASKSFRTPGRVSTPTGSKLKSSNNRHEDLLRMEPEELMLSTEVIGQRDSWDLSDRERDIRQGIDLATTLERIEKNFVISDPRLPDNPIIFASDSFLELTEYSREEILGRNGRFLQGPETDQATVQKIRDAIRDQREITVQLINYTKSGKKFWNLFHLQPMRDQKGELQYFIGVQLDGSDHVEPLQNRLSERTEMQSSKLVKATATNVDEAVRELPDANTRPEDLWAAHSKPVYPLPHNKESTSWKAIKKIQASGETVGLHHFKPIKPLGSGDTGSVHLVELKGTGELYAMKAMEKTMMLNRNKAHRACIEREIISLLDHPFLPTLYASFQTSTHVCLITDFCPGGELFALLDRQPMKILTEDSARFYAAEVVIGLEYLHCLGIVYRDLKPENILLKKDGHIVLADFDLSFMTTCTPQLIIPAAPSKRRRSKSQPLPTFVAEPSTQSNSFVGTEEYIAPEIITGAGHTSAIDWWALGILLYEMLYGRTPFRGKNRQKTFANILHKDLTFPSSIPVSLVGRQLINTLLNRDPSSRLGSKGGANEIKQHAFFRGINWPLIRGMSPPPLDAPLSIIEKDPNAKDIKWEDDGVLVNSTDLDIDLF
modifications: miniSOG polypeptide
- decrease of IFP fluorescence (blue light (488 nm) illumination): −70%
- IFP1.4 brightness before irradiation (two colonies, fusion to IFP1.4): 100 and 96
- IFP1.4 brightness after irradiation (two colonies, irradiation at 480/30 nm): 27 and 28
